Measured values as given in publication PMC4165446.

Legend:
Assay in all cases: other fluorescence titration
[1] = molecular target: FIH-Gln239 → His variant (human)
[2] = molecular target: FIH-Gln239 → Ala variant (human)
[3] = molecular target: FIH-Gln239 → Glu variant (human)
[4] = molecular target: FIH-Gln239 → Asn variant (human)

B1: 39-mer CTAD peptide (C-terminal activation domain of human HIF1α, HIF1α 788–826, Cys800 → Ala) (peptide)
peptide: DESGLPQLTSYDAEVNAPIQGSRNLLQGEELLRALDQVN
Kd [1]: 64 µM
Kd [2]: 100 µM
Kd [3]: 75 µM
Kd [4]: 98 µM
